{"source": "patent US20240168030A1", "about": "“DIRECT FLUORESCENT GLYCAN LABELING” (BIO-TECHNE CORPORATION, priority 2019, published 2024)", "molecules": {"B1": {"name": "α-N-acetylgalactosaminide α-2,6-sialyltransferase 1 (protein, UniProt Q9NSC7 1-600, looked up)", "Alpha-N-acetylgalactosaminide …": "MRSCLWRCRHLSQGVQWSLLLAVLVFFLFALPSFIKEPQTKPSRHQRTENIKERSLQSLAKPKSQAPTRARRTTIYAEPVPENNALNTQTQPKAHTTGDRGKEANQAPPEEQDKVPHTAQRAAWKSPEKEKTMVNTLSPRGQDAGMASGRTEAQSWKSQDTKTTQGNGGQTRKLTASRTVSEKHQGKAATTAKTLIPKSQHRMLAPTGAVSTRTRQKGVTTAVIPPKEKKPQATPPPAPFQSPTTQRNQRLKAANFKSEPRWDFEEKYSFEIGGLQTTCPDSVKIKASKSLWLQKLFLPNLTLFLDSRHFNQSEWDRLEHFAPPFGFMELNYSLVQKVVTRFPPVPQQQLLLASLPAGSLRCITCAVVGNGGILNNSHMGQEIDSHDYVFRLSGALIKGYEQDVGTRTSFYGFTAFSLTQSLLILGNRGFKNVPLGKDVRYLHFLEGTRDYEWLEALLMNQTVMSKNLFWFRHRPQEAFREALHMDRYLLLHPDFLRYMKNRFLRSKTLDGAHWRIYRPTTGALLLLTALQLCDQVSAYGFITEGHERFSDHYYDTSWKRLIFYINHDFKLEREVWKRLHDEGIIRLYQRPGPGTAKAKN", "notes": "recombinant human sialyltransferase, O-GalNAc specific"}, "B2": {"name": "α-N-acetylgalactosaminide α-2,6-sialyltransferase 2 (protein, UniProt Q9UJ37 1-374, looked up)", "Alpha-N-acetylgalactosaminide …": "MGLPRGSFFWLLLLLTAACSGLLFALYFSAVQRYPGPAAGARDTTSFEAFFQSKASNSWTGKGQACRHLLHLAIQRHPHFRGLFNLSIPVLLWGDLFTPALWDRLSQHKAPYGWRGLSHQVIASTLSLLNGSESAKLFAPPRDTPPKCIRCAVVGNGGILNGSRQGPNIDAHDYVFRLNGAVIKGFERDVGTKTSFYGFTVNTMKNSLVSYWNLGFTSVPQGQDLQYIFIPSDIRDYVMLRSAILGVPVPEGLDKGDRPHAYFGPEASASKFKLLHPDFISYLTERFLKSKLINTHFGDLYMPSTGALMLLTALHTCDQVSAYGFITSNYWKFSDHYFERKMKPLIFYANHDLSLEAALWRDLHKAGILQLYQR", "notes": "sialyltransferase, O-GalNAc specific"}, "B3": {"name": "α-2,3-sialyltransferase 2 (protein, UniProt Q16842 1-350, looked up)", "CMP-N-acetylneuraminate-beta-g …": "MKCSLRVWFLSVAFLLVFIMSLLFTYSHHSMATLPYLDSGALDGTHRVKLVPGYAGLQRLSKERLSGKSCACRRCMGDAGASDWFDSHFDGNISPVWTRENMDLPPDVQRWWMMLQPQFKSHNTNEVLEKLFQIVPGENPYRFRDPHQCRRCAVVGNSGNLRGSGYGQDVDGHNFIMRMNQAPTVGFEQDVGSRTTHHFMYPESAKNLPANVSFVLVPFKVLDLLWIASALSTGQIRFTYAPVKSFLRVDKEKVQIYNPAFFKYIHDRWTEHHGRYPSTGMLVLFFALHVCDEVNVYGFGADSRGNWHHYWENNRYAGEFRKTGVHDADFEAHIIDMLAKASKIEVYRGN", "notes": "recombinant human sialyltransferase, Core-1 O-glycan specific"}, "B4": {"name": "α-2,3-sialyltransferase 4 (protein, UniProt Q11206 1-333, looked up)", "CMP-N-acetylneuraminate-beta-g …": "MVSKSRWKLLAMLALVLVVMVWYSISREDRYIELFYFPIPEKKEPCLQGEAESKASKLFGNYSRDQPIFLRLEDYFWVKTPSAYELPYGTKGSEDLLLRVLAITSSSIPKNIQSLRCRRCVVVGNGHRLRNSSLGDAINKYDVVIRLNNAPVAGYEGDVGSKTTMRLFYPESAHFDPKVENNPDTLLVLVAFKAMDFHWIETILSDKKRVRKGFWKQPPLIWDVNPKQIRILNPFFMEIAADKLLSLPMQQPRKIKQKPTTGLLAITLALHLCDLVHIAGFGYPDAYNKKQTIHYYEQITLKSMAGSGHNVSQEALAIKRMLEMGAIKNLTSF", "notes": "recombinant human sialyltransferase, N-glycan specific"}, "B5": {"name": "α-N-acetylgalactosaminide α-2,6-sialyltransferase 4 (protein, UniProt Q9H4F1 1-302, looked up)", "Alpha-N-acetyl-neuraminyl-2,3- …": "MKAPGRLVLIILCSVVFSAVYILLCCWAGLPLCLATCLDHHFPTGSRPTVPGPLHFSGYSSVPDGKPLVREPCRSCAVVSSSGQMLGSGLGAEIDSAECVFRMNQAPTVGFEADVGQRSTLRVVSHTSVPLLLRNYSHYFQKARDTLYMVWGQGRHMDRVLGGRTYRTLLQLTRMYPGLQVYTFTERMMAYCDQIFQDETGKNRRQSGSFLSTGWFTMILALELCEEIVVYGMVSDSYCREKSHPSVPYHYFEKGRLDECQMYLAHEQAPRSAHRFITEKAVFSRWAKKRPIVFAHPSWRTE", "notes": "as for B1"}}, "format_in_all_cases": "biochemical", "key": {"[1]": {"target": "T1, ST3Gal1 (Homo sapiens, UniProt Q11201)", "T1 construct": "purchased R&D Systems (Bio-Techne, Minneapolis, MN)", "T1 sequence (Q11201 1-340)": "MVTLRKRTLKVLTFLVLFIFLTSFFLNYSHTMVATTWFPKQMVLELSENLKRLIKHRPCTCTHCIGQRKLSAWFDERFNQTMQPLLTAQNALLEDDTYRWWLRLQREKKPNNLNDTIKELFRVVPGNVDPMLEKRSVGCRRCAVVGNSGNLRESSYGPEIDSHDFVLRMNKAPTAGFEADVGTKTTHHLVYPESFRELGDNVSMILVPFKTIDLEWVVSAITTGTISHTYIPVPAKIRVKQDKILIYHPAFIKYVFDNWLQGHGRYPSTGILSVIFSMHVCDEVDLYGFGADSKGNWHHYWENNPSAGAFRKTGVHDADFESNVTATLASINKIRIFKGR", "test": "Direct fluorescent glycan labeling (DFGL) with fluorophore-conjugated sialic acid by ST3Gal1", "conditions": "for Lower limit of detection of acceptor protein labeled by ST3Gal1: 0.2 nmol CMP-Cy5-SA, fluorescent imaging of SDS-PAGE"}, "[2]": {"target": "T2, ST6Gal1 (Homo sapiens, UniProt P15907)", "T2 construct": "purchased R&D Systems (Bio-Techne, Minneapolis, MN)", "T2 sequence (P15907 1-406)": "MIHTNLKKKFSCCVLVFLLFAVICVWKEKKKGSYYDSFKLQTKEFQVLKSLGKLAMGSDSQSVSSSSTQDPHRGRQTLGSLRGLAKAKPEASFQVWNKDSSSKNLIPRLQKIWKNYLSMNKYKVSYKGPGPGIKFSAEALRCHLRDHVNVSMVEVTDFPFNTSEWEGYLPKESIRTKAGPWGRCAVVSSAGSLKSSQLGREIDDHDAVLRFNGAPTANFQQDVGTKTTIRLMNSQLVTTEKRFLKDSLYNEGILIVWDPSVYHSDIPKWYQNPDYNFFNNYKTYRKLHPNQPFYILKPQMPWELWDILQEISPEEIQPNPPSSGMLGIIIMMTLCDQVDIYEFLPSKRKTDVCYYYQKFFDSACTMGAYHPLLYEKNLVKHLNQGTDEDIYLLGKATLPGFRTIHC", "test": "DFGL with fluorophore-conjugated sialic acid by ST6Gal1", "conditions": "for Lower limit of detection of acceptor protein labeled by ST6Gal1: 0.2 nmol CMP-Cy5-SA, fluorescent imaging of SDS-PAGE"}, "[3]": {"system": "fetal bovine fetuin and asialofetuin", "test": "Labeling of fetuin and asialofetuin by sialyltransferases with CMP-f-SA", "conditions": "CMP-f-SA donors, FIG. 2"}, "[4]": {"test": "Enzymatic synthesis of Le^x and sLe^x by glycan gel electrophoresis, substrate G2", "description": "FIG. 21A. Schematic view of the enzymatic steps for Le^X and sLe^X synthesis on the antibody glycan G0. The glycan short names follow that of FIG. 10. FIG. 21B Kinetic comparison of galactosylation on G0 by B4GalT1, sialyation on G2 by ST3Gal4 and ST6Gal1, and fucosylation on A2[3] by FUT7. The reaction time for B4GalT1 was 10 minutes. The reaction time for ST3Gal4, FUT7 and ST6Gal1 was 5 hours. In each case, the labeling enzyme was subject to a 3-fold serial dilution starting from 1 μg each of B4GalT1, FUT7 and ST6Gal1, and 3 μg ST3Gal4. FIG. 21C. […] Reaction time for both cases was 20 minutes. […] FIG. 21D. […] Reaction time for both cases was 20 minutes.\nFor a typical labeling reaction, 1 μg to 5 μg target protein was mixed with 0.2 nmol fluorophore-conjugated GDP-fucose and 0.2 μg of a fucosyltransferase in 30μL 25 mM Tris pH 7.5, 10 mM MnCl2. The mixture was incubated at 37° C. for 30 minutes. […] To release labeled glycans from a glycoprotein, the sample was first denatured by heating at 95° C. for two minutes in the presence of 0.5% SDS and 80 mM β-mercaptoethanol and then renatured with 1% Triton X-100, and finally treated with PNGase F at 10:1 mass ratio at 37° C. for 20 minutes. To release glycans from antibody, a sample was directly treated with Endo S at 10:1 mass ratio at 37° C. for 20 minutes. All samples were separated by sodium dodecyl sulfate—polyacrylamide gel electrophoresis (SDS-PAGE) at […]. For separating labeled glycoproteins and antibodies, 4-20% gradient SDS gel was used. For separating labeled free glycans, 15% or 17% gel was used. After separation, all gels were imaged using a FluorChem M imager (ProteinSimple, Bio-Techne, Minneapolis, MN). For glycoproteins samples, the gel was also imaged with traditional methods such as silver staining or trichloroethanol (TCE) staining.\nFor sLe^x synthesis, G0 was first converted to G2 by B4GalT1, then converted to A2[3] by ST3Gal4, and finally converted to A2[3]F2 (carrier of sLe^x) by FUT7 (FIG. 21A). During these steps, different amounts of enzymes, and multiple reaction times were applied to reveal the intermediate products.\nIntermediate products are signs for the progress of each enzymatic step."}, "[5]": {"conditions": "0.2 μg enzyme, 30 μL, 37° C., 30 minutes"}, "[6]": {"conditions": "0.2 μg enzyme, 30 μL, 37° C., 30 minutes, listed as AF"}, "[7]": {"conditions": "5 μg asialofetuin, 0.2 μg enzyme, 30 μL, 37° C., 30 minutes"}, "[8]": {"conditions": "5 μg asialofetuin, 0.2 μg enzyme, 30 μL, FIG. 4"}}}
{"molecule": "MUC1: recombinant mucin from R&D Systems, contains O-glycans [reference compound]", "values": [{"measurement": "Lower limit of detection of acceptor protein labeled by ST3Gal1", "setting": "[1]; [5]", "value": "around 0.012 μg"}]}
{"molecule": "asialofetuin: desialylated fetal bovine fetuin, model glycoprotein from Sigma-Aldrich [reference compound]", "values": [{"measurement": "Lower limit of detection of acceptor protein labeled by ST3Gal1", "setting": "[1]; [5]", "value": 0.37, "unit": "µg"}, {"measurement": "Lower limit of detection of acceptor protein labeled by ST3Gal1", "setting": "[1]; [6]", "value": "lower than 0.37 μg"}, {"measurement": "Lower limit of detection of acceptor protein labeled by ST6Gal1", "setting": "[2]; [5]", "value": 0.37, "unit": "µg"}, {"measurement": "Lower limit of detection of acceptor protein labeled by ST6Gal1", "setting": "[2]; [6]", "value": "lower than 0.37 μg"}]}
{"molecule": "cytidine monophosphate activated Cy5-conjugated sialic acid [CMP-Cy5-SA]", "values": [{"measurement": "Donor amount at which maximal labeling by ST3Gal1 was achieved", "setting": "[1]; [7]", "value": 37.0, "unit": "pmol"}, {"measurement": "Donor amount at which visible labeling on asialofetuin by ST3Gal1 was observed", "setting": "[1]; [7]", "value": 4.11, "unit": "pmol"}, {"measurement": "Donor concentration for maximal labeling of asialofetuin by ST3Gal1", "setting": "[1]; [8]", "value": 1.2, "unit": "µM"}, {"measurement": "Donor concentration needed for maximal labeling of asialofetuin by ST3Gal1", "setting": "[1]; FIG. 4", "value": 1.21, "unit": "µM"}, {"measurement": "Donor amount at which maximal labeling by ST6Gal1 was achieved", "setting": "[2]; [7]", "value": 37.0, "unit": "pmol"}, {"measurement": "Donor amount at which visible labeling on asialofetuin by ST6Gal1 was observed", "setting": "[2]; [7]", "value": 1.37, "unit": "pmol"}, {"measurement": "Donor concentration for maximal labeling of asialofetuin by ST6Gal1", "setting": "[2]; [8]", "value": 1.2, "unit": "µM"}, {"measurement": "Donor concentration needed for maximal labeling of asialofetuin by ST6Gal1", "setting": "[2]; FIG. 4", "value": 1.21, "unit": "µM"}]}
{"molecule": "B1", "values": [{"measurement": "Which of fetuin and asialofetuin the sialyltransferase labeled", "setting": "[3]", "value": "labeled both fetuin and asialofetuin"}]}
{"molecule": "B2", "values": [{"measurement": "Which of fetuin and asialofetuin the sialyltransferase labeled", "setting": "[3]", "value": "labeled both fetuin and asialofetuin"}]}
{"molecule": "B3", "values": [{"measurement": "Which of fetuin and asialofetuin the sialyltransferase labeled", "setting": "[3]", "value": "primarily labeled asialofetuin, but also weakly labeled fetuin"}]}
{"molecule": "B4", "values": [{"measurement": "Which of fetuin and asialofetuin the sialyltransferase labeled", "setting": "[3]", "value": "only labeled asialofetuin"}, {"measurement": "Time for the complete conversion of G2 to A2[3]", "setting": "[4]; FIG. 21B", "value": 5, "unit": "h"}, {"measurement": "Activity based on reaction completion", "setting": "[4]; substrate G2, completed product A2[3]", "value": 0.0084, "unit": "pmol/min/µg"}, {"measurement": "Relative activity", "setting": "[4]; substrate G2, product A2[3], normalized to FUT6 on sLe^x synthesis", "value": 0.06}]}
{"molecule": "B5", "values": [{"measurement": "Which of fetuin and asialofetuin the sialyltransferase labeled", "setting": "[3]", "value": "only labeled fetuin"}]}
